From the nanobody polyreactivity screen of Harvey et al. (2022)

Experiment: yeast display, Sf9 membrane polyspecificity reagent, FACS + sequencing; frameworks hold sequencing errors
In short: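 Sorting gates, low and high (top ~1%), were placed on anti-HA fluorescence to track expression and on streptavidin fluorescence to track reagent binding. A clone's polyreactivity label is taken from the gate it came out of. The reagent was 10% biotinylated, detergent-solubilized Sf9 membrane, applied for 1 hour at 4 °C to galactose-induced yeast display cells.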

Sequence | polyreactivity (PSR sort gate)
QVQLQESGCRLVQAGGRLRMSCAASGNIIDADIMGWYRQAPGKERELVASITDGRRTNYADSVKGRYTNSRDSEKNTVYMQMNSLKPEDTAVYYCAAIAYPVVPTYFDYDSDYFHWGQGTQVTVSS | high polyreactivity
QVQLQESGDGLVQAVGSLRLSCAASGYISGYYNMGWYRQAPGKERELVAGIDAFGSSTNYADCVKGRFTISRDNAKNTVYLEMNSLKPEDTAVYYFAARPYGDRLFSYWGQGTQVTVSS | low polyreactivity
QVQLQESGGCLVLAGGSLRLSCAASGYIFDTCPMGWYRQAPGKEREFVASIDHGSNTYYADSVKGRFTISRDSAKNTVYLQMNSLKPEDTAVYYCAVRDDGSYTYGNWGQGTQVTVSS | high polyreactivity
QVQLQESGGGLEQAGGSLRLSCAASGYISDIGTMGWYRQAPGKEREFVATIVVGSTTNYADSVKGRFTISRDNAKNTVYLKPESGRYRGVLLRGWLLAVGKFTYWGQGTQETVSS | low polyreactivity
QVQLQESGGGLLQAGGTLRLSCAASGSIFGYSGMGWYRQAPGKERELVAGIDYGTITNYADSVKGRFTISRDNAKNTVYLQKYSLKPADTAVYYCATDIHSVHNHRDKHVYDYWGQGTQVTVSS | low polyreactivity
QVQLQESGGGLMQAGVSQRLSCAASGSISYYSDMGWYRQAPRKEREFVAGIGYGTTTYYADSVKGRFTTSRDNAKNTVYLQMISMKPEDTAVYYCAAYQGNGYEFYYWGQGTQVTVRS | low polyreactivity
QVQLQESGGGLVKAGGSLRLSCAASGNISNHNDMGWYRQAPGKEREFVAGITAGGITNYADSVKGRFTISRDNAKNTGYLQMNSLKPEDTAVYYCAAYPDYAKSYGYWGQGTQATVSS | low polyreactivity
QVQLQESGGGLVLAGGSLRLSCAASGNIFVYSYMGWYRQAPGKEREFVAAIGAGSTTYYADSVSRFTISRDNAKNTVYLQMNSLKPEDTAVYYCNAEITVNDDDYWGQGTQVTVSS | low polyreactivity
QVQLQESGGGLVLAGGSLRLSCSASGNISFYGSMGWYRQAPGKESEFVATIDPGTNTNYADSVKDRFTISRDNAKNTVYLQMNSLKPEDTAVYYCAVEAGSDWPYRYWGQGTQVTVSS | low polyreactivity
QVQLQESGGGLVLAGGSLRLSCSASGNNSVYGSMGWYRQAPGKEREFVATIDPGTNTNYADSVKDRFTISRDNAKNTVYLQMNSLKPEDTAVYYCAVEAGSDWPYRYWGQGTQVTVSS | low polyreactivity
QVQLQESGGGLVQACGSLRLSCAASGYIFSHQYMGWYRQAPGKERELVASISPGATTNYADSVKGRFTISRDNAKNTVYLQMNSLKPEDTAVYYCARRYRPKYGYWGQGTQVTVSS | high polyreactivity
QVQLQESGGGLVQACGSLRLSCAASGYIFSHQYMGWYRQAPGKERELVASISPGATTNYADSVKGRFTISRDNAKNTVYLQMNSLKPEDTAVYYYAVYQILDRRLSYWGQGTQVTVSC | high polyreactivity
QVQLQESGGGLVQACGSQRLSCAASGSISEGQDKGWYRRAPGKEREFVAGIAPGATTYYADSEKGRFTISRDNAKNTVYLQMNSLKPEDTAVYFCAARSVTETDHDYWGQGTQVTVSS | low polyreactivity
QVQLQESGGGLVQADGSLRLSCAASGSIIGYYYMGWYRQAPGKDRELVATINNCGITNYADSVKGLFTISRDNAKNTVYLQMNSLKPDDTAVYYCAADEYAQRDLGYWGQGTQVTVSN | low polyreactivity
QVQLQESGGGLVQAGASLRLSCAASSNNSTLDVMGWYRQAPGKEREFVASIGSGGITNYADSVKGRFTISRDNAKNTVYLQMNSLKPEDTAVYYCAVLIQAYTDLIYWGQGTQVTLSS | high polyreactivity
QVQLQESGGGLVQAGGCLSCTASGTIFGQGDMGWYRQAPGKERELVATINDGASTYYADSVKGRFTISRDKAKNTVYLQKNSLKPDDTAVYYCAVFKDITTYFGYLGQGTQVTVSS | low polyreactivity
QVQLQESGGGLVQAGGDLRLICAASGNIFRDYIMGWYRQAPGKEREFVAGIDRGANTNYADSVIGRFTISRDNAKNSVFLQMNSRKPEVTAVYYCAVHNAIGPDFIYWGQGTQVTVSS | low polyreactivity
QVQLQESGGGLVQAGGILRLSCAACGNIFPSAVMGWYRQALGKEREFVATINSGSNTYYADSVKGRFTISRDNAKNTVYLQMNSLNLEDNAVYYCAAYFKLPAWHTYWGQGTQVTVSS | low polyreactivity
QVQLQESGGGLVQAGGILRMSCAASGTIFSEANMGWYRQAPGKERELVATIGQGSTTNYADSVKGRFTISRDNAKNTVYLQMNSLKPEETAVYYCAVVTVDAVGFVYWCQGTQVTVSS | low polyreactivity
QVQLQESGGGLVQAGGNLRLSCAACGNIFPSAVMGWYRQALGKEREFVATINSGSNTYYADSVKGRFTISRDHAKNTVYLQTNSLKLEDTAVYYCAAYFKLPAWHTYWGQGTQVTVSS | low polyreactivity
QVQLQESGGGLVQAGGRLRLSCAASGTISGPHVMGWYRQAPGKEREFFAAINVGANTYYADNVKGRYTISRDNAKNTVYLQMNSLKPEDTAVYYCAAVYYGDIGHEYWGQGTQVTVSC | low polyreactivity
QVQLQESGGGLVQAGGRLSLSRAASGFISGTYCMGCYRQTPGQDREFVAGIGNGAITYYADSAKGCFTISRDNAKNAVYLQMNSLKQEETAVYYCAADGQWYYAPFRGGDYENDYWGQGTQVTVSS | low polyreactivity

Sequence | polyreactivity (PSR sort gate)
QVQLQESGGGLVQAGGSLCLSCAASGTIFFDGDMGWYRQAPGKEREFVAAINPGGSAYNADSVKGRLPLAAITHTVYLQMNSLKPEDTAVYYCSAKLFDVYGYYYWGQGTHVTVSS | low polyreactivity
QVQLQESGGGLVQAGGSLLSCAASGTISWVDEMGWYRQAPGNERELVAGIAGGGNTNYADSVKGRFTISRDNAKNTVYLQMNSLDTAVYSCAVVGFGRGTHIYWGQGTQVTVSS | high polyreactivity
QVQLQESGGGLVQAGGSLLSCAASGTISWVDEMGWYRQAPGNERELVAGIAGGGNTNYADSVKGRFTISRDNAKNTVYLQMNSLDTAVYYCAVVGFGLGTHIYWGQGTQVTVSS | high polyreactivity
QVQLQESGGGLVQAGGSLLSCAASGTISYYREMGCYRQAPGKERELVAGIGVGTITYYADSVKGRFTISRDNAKNTVYLQLNSLKPEDNAVYYCAAHIDGNDSHAYWGQGTQVTVSS | low polyreactivity
QVQLQESGGGLVQAGGSLLSCAASGTISYYREMGWYRPAPGKERELVAGIGVGTITYYADSVKGRFTISRDNAKNTVYLQMNSRKPEDTAVYYCAAHIDGNDSHAYWGQGTQVTVSS | low polyreactivity
QVQLQESGGGLVQAGGSLLSCAASGTISYYREMGWYRQAPGKERELDAGIGVGTITSYADSVKGRFTISRDNAKNTVYLQMNSLKPEDTAVYYCAAHIDGNDSHAYWGQGTQVTVSC | low polyreactivity
QVQLQESGGGLVQAGGSLLSCAASGTISYYREMGWYRQAPGKERELVAGIGVGTITYYADSVKGRITISRDNAKNTVYLQMNSLKPEDTAVYYCEAHIDGNDSHAYWGQGTQVTVSS | low polyreactivity
QVQLQESGGGLVQAGGSLRLGCAASGNISDAGYMGWYRQAPGKEREFVAAIAAGSNTNYADSVKGRFTISRDNAKNTVNLQMNSLKPEDTAVFYCAVASYARVQYEYWGQGTQVTVNS | low polyreactivity
QVQLQESGGGLVQAGGSLRLGCAASGNISDAGYMGWYRQAPGKEREFVAAIAAGSTTNYADSVKGRFTISRDNAKNTVYLQMNSLKPEDTAVFYCAVASYARVQFEYWGQGTQVTVNS | low polyreactivity
QVQLQESGGGLVQAGGSLRLGCAASGNISDPGYMGWYRQAPGKEREFVAAIAAGSNTNYADSVKGRFTISRDNAKNTVYLLMNSLKPEDTAVFYCAVDSYARVQYEYWGQGTQVTVYS | low polyreactivity
QVQLQESGGGLVQAGGSLRLSCAASCTISQEDWMGWYRQAPGKEREFVAAIGLGSNTNYADSLKGRFTISRDNAKNTVYLQMNSLKPEDTAVSYCAVSVWQYSDHVYRGQGTQVTVSS | low polyreactivity
QVQLQESGGGLVQAGGSLRLSCAASGNFFDADIMGWYRQAPGKERELVASITDGGSTNYADSVKGRFTISRGNTKNTVYLLMNCLKPEDTSVYYCAAIAYPDMPTYFDYNSDYFYWGQGTQVTVSS | high polyreactivity
QVQLQESGGGLVQAGGSLRLSCAASGNIFEADIMGWYHQAQGKERELVASITDGGSTNYADSVKGRFTINRDNAKNNVYLQMNSLKPEDTAVYYCAAIAYPDIPTYFDYDSDYFYWGQGTQVTVSS | high polyreactivity
QVQLQESGGGLVQAGGSLRLSCAASGNIFSAGGMGWYRQAPVNERELVAGIGTGTSTNYADSVKGRFTISRDNAKNTVYLQMNSLKPEDTAVYYCAAAYYSGLSHWYWGQGTQVTVSS | low polyreactivity
QVQLQESGGGLVQAGGSLRLSCAASGNIFSSGVMGWYRQAPGKERELVATINVGANTNYADSVKGRFTISRDNAKNTVYLQMNRLKPEDTAVYYCAVDKGDDGSFYLWGQGTQVTVSS | high polyreactivity
QVQLQESGGGLVQAGGSLRLSCAASGNISVTGFMGWYRQAPGKERELVASIGIGGTTYYADSVKGRFSISRDNAKNTVYLQINSLKPVDTAVYYCAARYLYYAYSYWGQGTQVTVRS | low polyreactivity
QVQLQESGGGLVQAGGSLRLSCAASGNIVDADIMGWYRQAPGKERELVASITDGGSTNYADSVKGRFTISSDNAKNTVYLQMNSLKPEDTAVYYCAAIAYPDIPTYFDYDSEYFYWGQGTQVTVSS | low polyreactivity
QVQLQESGGGLVQAGGSLRLSCAASGNIVDADIMGWYRQAPRKERELVASITDGGSTNYADSVKGRFTISRDNAKNTVYLQMNSLIPEDTAVYYCAAISYPDIPTYFDYDSEYFYWGQGTQVSVSS | low polyreactivity
QVQLQESGGGLVQAGGSLRLSCAASGPISGPHVMGWYRQAPGKEREFVAAINVGANTYYADNVKGRFTISRDNATNTVYLQMNSLKPEDTAVYYCAAVYYGDIGHEYWGQGTQVTVSC | low polyreactivity
QVQLQESGGGLVQAGGSLRLSCAASGSIFDYVSMGWYRQAPGEERELVVTITLGSNTYYADSVKGRFTISSDIAKNTVYLQMNSLNPEDTAVYYCAPSALWGYVYPYWGLGTQVTVSS | high polyreactivity
QVQLQESGGGLVQAGGSLRLSCAASGSIFLFYTMGWYRQAPVKEREFVAGITLGTTTYNADSVKGRFTISRDNVKNTVYLQMNSLKPEDTAVYYCNAVGDARYNYWGQGTQVTVSS | high polyreactivity
QVQLQESGGGLVQAGGSLRLSCAASGSIFNVVDMGLYRQAPAKEREFVATIGEGGNTYYADSLKGSFTISRDNAKNTVYLQMNSLKPEDTAVYFYAVVLGTSFRYTYWGQGTQVTVSS | low polyreactivity
